For test [1], the target named is L48R (Mus musculus). In words: flow cytometry, GFP-positive transfected HEK-293T cells, fluorochrome-conjugated antibody at 10 ug/ml, Geo-mean relative to wild type.
The target of test [2] is human BTLA extracellular region / murine CD28 construct with K41E, on HEK-293T cells (human; mouse) (UniProt P31041). Described as above.
In test [3] the target is human BTLA extracellular region / murine CD28 construct with Y39R, on HEK-293T cells (human; mouse) (UniProt P31041). Described as above.
For test [4], the target named is full length human BTLA expressed on cells (human) (UniProt Q7Z6A9). In words: cell-based or functional assay.

Chain of human BTLA extracellular region / murine CD28 construct with K41E, on HEK-293T cells (human; mouse) (P31041 other isoform, or with tags, fused parts or gaps K41E K41E): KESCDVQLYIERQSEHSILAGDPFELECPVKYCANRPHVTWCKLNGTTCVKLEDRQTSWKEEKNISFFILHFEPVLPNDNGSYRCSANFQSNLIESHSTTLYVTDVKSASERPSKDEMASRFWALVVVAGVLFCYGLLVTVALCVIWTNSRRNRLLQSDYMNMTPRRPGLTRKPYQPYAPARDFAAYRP
Chain of human BTLA extracellular region / murine CD28 construct with Y39R, on HEK-293T cells (human; mouse) (P31041 other isoform, or with tags, fused parts or gaps Y39R Y39R): as the sequence (P31041 other isoform, or with tags, fused parts or gaps K41E K41E) above, with Y9R, E11K counted along it

B1: 2.8.6 (antibody, V domains shown)
VH: QVQLKESGPGLVAPSQSLSITCTVSGFSLTTYGVHWVRQSPGKGLEWLGVMWPGGRTSYNPAPMSRLSISKDNSKSQVFLKMNSLQTDDTAMYYCVRGDYEYDYYAMDYWGQGTSVTVSS
VL: QIVLSQSPAILSASPGEKVTMTCRASSSVSYMHWYQQKPGSSPKPWIYATSNLASGVPARFSGSGSGTSYSLTISRMEAEDAATYYCHQWSSNPYTFGGGTKLEIK
On to B1, for which the binding as % of binding to wild-type BTLA was 102% in test [1], 91.4% in test [2] and 60% in test [3].

B2: 22B3 hIgG4PAA (antibody, from another filing, V domains shown)
VH: QVQLVQSGAEVKKPGASVKVSCKASGFSLSSYGVSWVRQAPGQGLEWMGAISYDGITYYASWAKSRVTMTRDTSTSTVYMELSSLRSEDTAVYYCARGDYYDDYVYVYALDIWGQGTLVTVSS
VL: EIVLTQSPGTLSLSPGERATLSCQASQSISTALAWYQQKPGQAPRLLIYAASTLASGIPDRFSGSGSGTDFTLTISRLEPEDFAVYYCQQGYSSSNLDNVFGGGTKVEIKR
In test [4], B2 registered an inhibition of NFkB signal, IC50 of 3.8 nM and a maximal inhibition of NFkB signal of 18%.

B3: 11.5.1 (antibody, V domains shown)
VH: EVQLQESGPSLVKPSQTLSLTCSVTGDSITSAYWNWIRKFPGNKLEYMGYISYSGSTYFNPSLKSRISITRNTSKNQYYLQLNSVTTEDTATYYCARSHYYGYYFDYWGHGTTLTVSS
VL: DIVLTQSPASLAVSLGQRATISCRASETIDSYGDSLMHWYQQKAGQPPKLLIYRASNLESGIPARFSGSGSRTDFTLTINPVEADDVATYYCQQTDEDPYTFGGGTKLEIK
Regarding B3, the binding as % of binding to wild-type BTLA stood at 145% in test [1], 1.8% in test [2] and 0.76% in test [3].

The record behind these values is US20230235058A1.
